The values that follow come from US6905854B2, “Mutated penicillin expandase and process for preparing 7-ADCA using the same” (Synmax Biochemical Co., Ltd., priority 2002, dated 2005).

Residue numbers refer to the chain shown, from its start. Numbers in names are those of the source.

What all share (format): biochemical
The nature of data set [1]: DAOCS activity assay with cell extracts. The note with it: 20 μl cell extract, 7 mM penicillin G, 30° C., 20 minutes. On the procedure:
BL21(DE3) transformants were grown overnight in 5 ml of LB medium with 50 μg/ml kanamycin at 30° C. This culture was used to inoculate 100 ml of the same medium and grown at 30° C. for 1 hour. Then 0.1 mM IPTG was added to induce DAOCS indirectly at 30° C. for 4 hours. Cells were harvested, washed with buffer A (50 mM Mops/pH 7.5, 1 mM PMSF, 1 mM DTT, and 0.5 μg/ml leupeptin), lysed by sonication (VCX 750; Sonics & Materials, USA), and centrifuged at 15,000×g for 15 minutes. The supernatant was used as a cell extract.
(§1) For penicillin G, 20 μl of cell extracts was added into a standard 200 μl assay reaction containing 50 mM Mops/pH 7.5, 4 mM ascorbate, 1 mM FeSO4, 4 mM α-ketoglutarate and 7 mM penicillin G, and incubated at 30° C. for 20 minutes. The reaction was stopped by addition of 200 μl of ethanol, followed by a centrifugation at 15,000×g for 5 minutes. The concentration of cephalosporin G in supernatant was analyzed by HPLC with 40 μl injection. The mobile phase was 25 mM potassium phosphate/pH 6.5 with 19% acetonitrile at a flow rate of 1 ml/min. The retention time for cephalosporin G was 8.5 minutes and 12.5 minutes for penicillin G with detection at 215 nm, and the product at 8.5 minutes in DAOCS reaction was confirmed by ESI-LC/MS (positive): [M+H]^+=333. […] The different combinations of the mutated amino acids mentioned above were also constructed by site-directed mutagenesis.

A short description of data set [2]: Kinetic assay of purified DAOCS with penicillin G (standard penicillin G assay, HPLC of cephalosporin G). The note with it: for penicillin G, 20 μg purified DAOCS, 1 mM α-ketoglutarate, 30° C.; for Km: triplicate, Hanes-Woolf Plot. On the procedure: as §1
(§2) The cell extract (2 ml) of a candidate mutant was applied onto a HiTrap Q column (5 ml) pre-equilibrated with buffer B (50 mM Mops/pH 7.5, 1 mM DTT, 0.4 mM pefabloc SC, and 0.5 μg/ml leupeptin). Then, the column was washed with 20 ml of buffer B, followed by a further wash with 25 ml of buffer B containing 120 mM NaCl, and DAOCS was eluted off with 20 ml of buffer B containing 150 mM NaCl. The DAOCS containing fractions were pooled (10 ml), concentrated by UF 15 device (NMWL 5K; Millipore), and loaded onto a Hiload Superdex 75 (16/60) column pre-equilibrated with buffer B at a flow rate of 1 ml/min.
(§3) The standard penicillin G assay was followed for kinetic assay, but 20 μg of purified DAOCS was used and the concentration of α-ketoglutarate was reduced to 1 mM. Kinetic parameters were obtained from triplicate experiments by Hanes-Woolf Plot. For assays using penicillin N as a main substrate, a total volume of 240 μl reaction containing 50 mM Hepes/pH 7.5, 0.4 mM ascorbate, 0.1 mM FeSO4, 0.1 mM α-ketoglutarate, 0.1 mM penicillin N and 0.5 μg of purified DAOCS was incubated at 30° C. for 10 minutes, then the same volume of 10 mM EDTA/pH 7.5 was added, and the mixture was subjected to ultrafiltration with UF 0.5 device (NMWL 5000, Millipore). The filtrate was analyzed by HPLC using 25 mM potassium phosphate/pH 6.5 as a mobile phase. The retention time of DAOC and penicillin N was 12 minutes and 13.5 minutes, respectively The results of kinetic parameters are shown in Table 1, wherein the definition and calculation of the parameters are described in Lehninger et al. Principles of Biochemistry, 2nd Ed. Worth Publishers, New York (1993) which is incorporated herein for reference.

Data set [3] in a line: Kinetic assay of purified DAOCS with penicillin N as main substrate. The note with it: for penicillin N, 0.5 μg purified DAOCS, 30° C., 10 minutes; for Km: triplicate, Hanes-Woolf Plot. The method, then: as §2, §3
The nature of data set [4]: Relative activity of purified combined mutants compared to wild type DAOCS. The note with it: 1 mM penicillin G; activity of wild-type DAOCS as 100%. On the procedure:
as §1, §3
The relative activities of the mutants are determined according to Chin H. S. et al supra with the activity of wild-type DAOCS as 100% and shown in Table 2. The assay was performed with 1 mM penicillin G, and the other conditions were the same as standard assay.

B1: YS49: mutated penicillin expandase (DAOCS) with substitution L277K (protein, UniProt P18548 1-311, looked up, variant L277K)
Deacetoxycephalosporin C …: MDTTVPTFSLAELQQGLHQDEFRRCLRDKGLFYLTDCGLTDTELKSAKDLVIDFFEHGSEAEKRAVTSPVPTMRRGFTGLESESTAQITNTGSYSDYSMCYSMGTADNLFPSGDFERIWTQYFDRQYTASRAVAREVLRATGTEPDGGVEAFLDCEPLLRFRYFPQVPEHRSAEEQPLRMAPHYDLSMVTLIQQTPCANGFVSLQAEVGGAFTDLPYRPDAVLVFCGAIATLVTGGQVKAPRHHVAAPRRDQIAGSSRTSSVFFLRPNADFTFSVPKARECGFDVSLDGETATFQDWIGGNYVNIRRTSKA
With B1, the “expandase activity on penicillin G compared to parent strain YS16” value in data set [1] was “higher expandase activities on penicillin G than the parent strain YS16”. In data set [2], the kcat is 0.0514 ± 0.0008 S^−1 and the Km was found to be 720 ± 20 µM. In data set [3], the kcat is reported as 0.220 ± 0.042 S^−1 and the Km turned out to be 11 ± 5 µM.

B2: EC12: mutated penicillin expandase (DAOCS) with substitution L277Q (protein, UniProt P18548 1-311, looked up, variant L277Q)
Deacetoxycephalosporin C …: B1 Deacetoxycephalosporin C … with K277Q
For the molecule B2, in data set [2], the kcat is 0.1036 ± 0.0012 S^−1 and the Km is 1020 ± 20 µM. For the same molecule, in data set [3], the kcat worked out at 0.297 ± 0.020 S^−1 and the Km was 11 ± 1.5 µM.

B3: YS74: combined DAOCS mutant, mutated sites 275I, 304K, 305L (protein, UniProt P18548 1-311, looked up, variant V275I N304K I305L)
Deacetoxycephalosporin C …: B1 Deacetoxycephalosporin C … with V275I, K277L, N304K, I305L
For the molecule B3, the “Relative Activities” value in data set [4] is 300%.

B4: YH2: mutated penicillin expandase (DAOCS) with substitution H244R (protein, UniProt P18548 1-311, looked up, variant H244R)
Deacetoxycephalosporin C …: B1 Deacetoxycephalosporin C … with H244R, K277L
Take B4: the figures for the kcat in data set [2] and in data set [3] were 0.0672 ± 0.0008 S^−1 and 0.236 ± 0.005 S^−1, respectively. Also, the Km in data set [2] worked out at 2450 ± 40 µM; in data set [3], 8 ± 1 µM.

B5: SC39: combined DAOCS mutant, mutated sites 73T, 281Y (protein, UniProt P18548 1-311, looked up, variant M73T C281Y)
Deacetoxycephalosporin C …: B1 Deacetoxycephalosporin C … with M73T, K277L, C281Y
As for B5, in data set [4], the “Relative Activities” value came out at 610%.

B6: YS11: mutated penicillin expandase (DAOCS) with substitution I305M (protein, UniProt P18548 1-311, looked up, variant I305M)
Deacetoxycephalosporin C …: B1 Deacetoxycephalosporin C … with K277L, I305M
On to B6, for which the “expandase activity on penicillin G compared to parent strain YS16” value in data set [1] is given as “higher expandase activities on penicillin G than the parent strain YS16”. Further, in data set [2], the kcat is listed as 0.1452 ± 0.0020 S^−1 and the Km turned out to be 750 ± 40 µM. In data set [3], the kcat amounted to 0.310 ± 0.004 S^−1 and the Km was determined as 12 ± 1 µM.

B7: YS67: mutated penicillin expandase (DAOCS) with substitutions V275I and I305M (protein, UniProt P18548 1-311, looked up, variant V275I I305M)
Deacetoxycephalosporin C …: B1 Deacetoxycephalosporin C … with V275I, K277L, I305M
Turning to B7, in data set [2], the kcat came out at 0.1458 ± 0.0038 S^−1 and the Km amounted to 250 ± 80 µM. The “Relative Activities” value in data set [4] came to 500%. Also, in data set [3], the kcat is listed as 0.316 ± 0.032 S^−1 and the Km is 13 ± 5 µM.

B8: YS72: mutated penicillin expandase (DAOCS) with substitution C155Y (protein, UniProt P18548 1-311, looked up, variant C155Y)
Deacetoxycephalosporin C …: B1 Deacetoxycephalosporin C … with C155Y, K277L
Regarding B8, in data set [2], the kcat worked out at 0.0476 ± 0.0012 S^−1 and the Km came out at 1760 ± 50 µM. For the same molecule, in data set [3], the kcat was 0.235 ± 0.008 S^−1 and the Km came out at 16 ± 0.5 µM.

B9: YS81: combined DAOCS mutant, mutated sites 275I, 281Y, 305M (protein, UniProt P18548 1-311, looked up, variant V275I C281Y I305M)
Deacetoxycephalosporin C …: B1 Deacetoxycephalosporin C … with V275I, K277L, C281Y, I305M
For the molecule B9, in data set [4], the “Relative Activities” value is 1290%.

B10: YS16: wild-type expandase (DAOCS, cefE gene) from Streptomyces clavuligerus, parent strain (protein, UniProt P18548 1-311, looked up)
Deacetoxycephalosporin C …: B1 Deacetoxycephalosporin C … with K277L
Regarding B10, in data set [2], the kcat amounted to 0.0453 ± 0.0010 S^−1 and the Km was found to be 2580 ± 220 µM. In data set [4], the “Relative Activities” value was 100%. Moreover, in data set [3], the kcat is on record as 0.307 ± 0.038 S^−1 and the Km stood at 14 ± 6 µM.

B11: YS8: mutated penicillin expandase (DAOCS) with substitution I305L (protein, UniProt P18548 1-311, looked up, variant I305L)
Deacetoxycephalosporin C …: B1 Deacetoxycephalosporin C … with K277L, I305L
Regarding B11, in data set [1], the “expandase activity on penicillin G compared to parent strain YS16” value is given as “higher expandase activities on penicillin G than the parent strain YS16”. For the same molecule, the results for the kcat in data set [2] and in data set [3] were 0.0759 ± 0.0015 S^−1 and 0.284 ± 0.030 S^−1, respectively. Further, the values for the Km in data set [2] and in data set [3] were 660 ± 70 µM and 6 ± 2 µM, respectively.

B12: YS100: combined DAOCS mutant, mutated sites 79E, 275I, 305L (protein, UniProt P18548 1-311, looked up, variant G79E V275I I305L)
Deacetoxycephalosporin C …: B1 Deacetoxycephalosporin C … with G79E, V275I, K277L, I305L
Take B12: the “Relative Activities” value in data set [4] is reported as 470%.

B13: YS71: mutated penicillin expandase (DAOCS) with substitution A106T (protein, UniProt P18548 1-311, looked up, variant A106T)
Deacetoxycephalosporin C …: B1 Deacetoxycephalosporin C … with A106T, K277L
Take B13: in data set [2], the kcat is 0.0453 ± 0.0009 S^−1 and the Km was determined as 1770 ± 150 µM. Moreover, in data set [3], the kcat amounted to 0.277 ± 0.014 S^−1 and the Km turned out to be 13 ± 2 µM.

B14: YS88: combined DAOCS mutant, mutated sites 79E, 275I, 281Y (protein, UniProt P18548 1-311, looked up, variant G79E V275I C281Y)
Deacetoxycephalosporin C …: B1 Deacetoxycephalosporin C … with G79E, V275I, K277L, C281Y
As to B14, in data set [4], the “Relative Activities” value worked out at 430%.

B15: SC59: DNA-shuffled combined DAOCS mutant with C155Y, Y184H, V275I and C281Y (protein, UniProt P18548 1-311, looked up, variant C155Y Y184H V275I C281Y)
Deacetoxycephalosporin C …: B1 Deacetoxycephalosporin C … with C155Y, Y184H, V275I, K277L, C281Y
On to B15, for which, in data set [2], the kcat is 0.1398 ± 0.0015 S^−1 and the Km is 190 ± 2 µM. Besides, in data set [3], the kcat was 0.048 ± 0.001 S^−1 and the Km was determined as 92 ± 0.5 µM.

B16: YS69: mutated penicillin expandase (DAOCS) with substitution M188I (protein, UniProt P18548 1-311, looked up, variant M188I)
Deacetoxycephalosporin C …: B1 Deacetoxycephalosporin C … with M188I, K277L
For B16, in data set [2], the kcat is recorded as 0.0507 ± 0.0006 S^−1 and the Km turned out to be 1960 ± 90 µM. Also, in data set [3], the kcat was found to be 0.277 ± 0.004 S^−1 and the Michaelis constant (Km) amounted to 11 ± 1 µM.
